Experimental data: paper PMC5672800 (Journal of medicinal chemistry, 2017)
Non-standard residues stand in square brackets, D forms with d. dPhe(4-I) = N[C@H](Cc1ccc(I)cc1)C(=O)O; d2Nal = N[C@H](Cc1ccc2ccccc2c1)C(=O)O; Bta = N[C@@H](Cc1csc2ccccc12)C(=O)O; Tic = O=C(O)[C@@H]1Cc2ccccc2CN1

Columns and labels:
[1] = target: T1, mouse melanocortin-3 receptor (mouse, UniProt P33033 1-323); assay: cell-based or functional assay
[2] = target: T2, mouse melanocortin-4 receptor (mouse, UniProt P56450 1-332); assay: cell-based or functional assay
[3] = target: mouse melanocortin-1 receptor (mouse, UniProt Q01727 1-315); assay: cell-based or functional assay
[4] = target: mouse melanocortin-5 receptor (mouse, UniProt P41149 1-325); assay: cell-based or functional assay
[5] = target: T1, mouse melanocortin-3 receptor; assay: radioligand binding
[6] = target: T2, mouse melanocortin-4 receptor; assay: radioligand binding

T1 sequence (P33033 whole entry): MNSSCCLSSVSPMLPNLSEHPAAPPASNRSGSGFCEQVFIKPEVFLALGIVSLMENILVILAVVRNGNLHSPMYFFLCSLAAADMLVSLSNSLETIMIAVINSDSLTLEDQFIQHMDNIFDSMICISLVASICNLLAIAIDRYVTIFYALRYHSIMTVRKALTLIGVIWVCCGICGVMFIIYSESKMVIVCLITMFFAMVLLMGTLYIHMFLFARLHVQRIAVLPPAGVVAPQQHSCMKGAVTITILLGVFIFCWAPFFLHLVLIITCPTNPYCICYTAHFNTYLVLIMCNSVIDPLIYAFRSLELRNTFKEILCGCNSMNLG
mouse melanocortin-5 receptor, sequence (P41149 whole entry): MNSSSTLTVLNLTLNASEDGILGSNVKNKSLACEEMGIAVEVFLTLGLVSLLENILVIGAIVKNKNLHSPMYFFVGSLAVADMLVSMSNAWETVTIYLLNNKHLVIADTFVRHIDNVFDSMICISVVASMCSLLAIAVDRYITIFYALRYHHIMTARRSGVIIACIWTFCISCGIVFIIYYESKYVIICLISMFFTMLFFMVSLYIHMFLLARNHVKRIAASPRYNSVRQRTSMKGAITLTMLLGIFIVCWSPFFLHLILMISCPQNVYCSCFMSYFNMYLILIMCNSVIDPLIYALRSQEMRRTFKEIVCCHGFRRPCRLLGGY
T2 sequence (P56450 whole entry): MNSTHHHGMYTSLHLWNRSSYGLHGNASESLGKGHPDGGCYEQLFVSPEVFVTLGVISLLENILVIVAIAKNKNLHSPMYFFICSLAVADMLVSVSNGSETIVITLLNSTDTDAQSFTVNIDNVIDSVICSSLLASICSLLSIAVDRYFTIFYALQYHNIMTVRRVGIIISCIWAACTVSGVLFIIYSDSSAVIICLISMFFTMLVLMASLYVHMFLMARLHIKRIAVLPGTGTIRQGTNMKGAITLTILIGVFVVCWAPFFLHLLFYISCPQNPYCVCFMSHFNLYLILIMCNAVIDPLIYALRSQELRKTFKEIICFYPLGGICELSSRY
mouse melanocortin-1 receptor, sequence (Q01727 whole entry): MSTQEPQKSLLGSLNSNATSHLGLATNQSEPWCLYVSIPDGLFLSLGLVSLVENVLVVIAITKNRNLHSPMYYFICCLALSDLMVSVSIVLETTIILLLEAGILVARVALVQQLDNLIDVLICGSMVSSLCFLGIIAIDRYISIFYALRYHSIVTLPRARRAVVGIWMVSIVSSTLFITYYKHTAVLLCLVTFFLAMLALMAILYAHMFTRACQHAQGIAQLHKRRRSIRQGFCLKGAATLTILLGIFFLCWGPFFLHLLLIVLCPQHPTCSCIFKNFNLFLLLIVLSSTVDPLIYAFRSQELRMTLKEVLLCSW

Binder | cAMP AlphaScreen, HEK293 cells stably expressing the receptor: agonist EC50 [1] [µM] | cAMP AlphaScreen, HEK293 cells stably expressing the receptor: agonist EC50 [2] [µM] | cAMP AlphaScreen, Schild analysis against NDP-MSH (blocks m5+m3): antagonist pA2 [2] | cAMP AlphaScreen, HEK293 cells stably expressing the receptor: agonist EC50 [3] [µM] | cAMP AlphaScreen, HEK293 cells stably expressing the receptor: agonist EC50 [4] [µM] | IC50 [5] [µM] | IC50 [6] [µM]
Ac-RR[dPhe(4-I)][d2Nal]-NH2 [Ac-Arg-Arg-(pI)DPhe-DNal(2′)-NH2] | 0.057 | > 100 | 6.4 -Log(Ki) | 0.28 | 0.5 | 0.44 | 0.22
RRFF (HELM PEPTIDE1{[ac].R.R.[O=C([C@@H](Cc1ccc(I)cc1)N[*:1])[*:2]].F.[am]}$$$$V2.0; SMILES CC(=O)N[C@@H](CCCNC(=N)N)C(=O)N[C@@H](CCCNC(=N)N)C(=O)N[C@H](Cc1ccc(I)cc1)C(=O)N[C@@H](Cc1ccccc1)C(N)=O) [compound 25] |  |  |  | 0.055 | 0.34 |  | 
HRFX (HELM PEPTIDE1{[ac].H.R.[O=C([C@@H](Cc1ccc(I)cc1)N[*:1])[*:2]].[Tic].[am]}$$$$V2.0; SMILES CC(=O)N[C@@H](Cc1c[nH]cn1)C(=O)N[C@@H](CCCNC(=N)N)C(=O)N[C@H](Cc1ccc(I)cc1)C(=O)N1Cc2ccccc2C[C@H]1C(N)=O) [Ac-His-Arg-(pI)DPhe-Tic-NH2] | 0.04 | > 100 | 7 -Log(Ki) | 0.00071 | 0.017 |  | 0.083
Ac-FR[dPhe(4-I)][Tic]-NH2 [compound 22] | 0.61 | > 100 | 6.3 -Log(Ki) | 0.008 | 0.2 | 2.5 | 0.135
Ac-[d2Nal]R[dPhe(4-I)][Tic]-NH2 [compound 24] | 0.6 |  | 6.4 -Log(Ki) | 0.007 | 0.25 |  | 0.043
Ac-FR[dPhe(4-I)][Bta]-NH2 [compound 15] | 0.93 | > 100 | 5.7 -Log(Ki) | 0.33 | 1.3 |  | 0.85
Ac-HR[dPhe(4-I)][Bta]-NH2 [compound 11] | 0.46 |  | 6.4 -Log(Ki) | 0.07 | 0.27 |  | 0.275
Ac-H[dF]RW-NH2 [Ac-His-DPhe-Arg-Trp-NH2] |  |  |  |  | 0.003 |  | 
Ac-RR[dPhe(4-I)][Bta]-NH2 [compound 10] | 0.16 |  | 6.6 -Log(Ki) | 0.056 | 0.21 |  | 0.093
RRFX (HELM PEPTIDE1{[ac].R.R.[O=C([C@@H](Cc1ccc(I)cc1)N[*:1])[*:2]].[Tic].[am]}$$$$V2.0; SMILES CC(=O)N[C@@H](CCCNC(=N)N)C(=O)N[C@@H](CCCNC(=N)N)C(=O)N[C@H](Cc1ccc(I)cc1)C(=O)N1Cc2ccccc2C[C@H]1C(N)=O) [Ac-Arg-Arg-(pI)DPhe-Tic-NH2] |  | > 100 | 7.8 -Log(Ki) | 0.00051 | 0.0088 |  | 0.013
